Source: the DeepSol protein solubility set

Assay: soluble on expression in E. coli; label from the status in PepcDB or PDB records

| Sequence | soluble on expression in E. coli |
| --- | --- |
| PVIGSVAPESLAAQAGLEAGQELLAVDGEPVTGWNGVNLQLVRRLGESGTLEVRVQEKGSNVDSTHQVRLDGWLKGEDNPDPIASLGIRPWRPALPPVLAELDPKGPAQAAGLKLGDRLQSIDGIAVDDWQQVVDSVRARPGQRVQLKVLRDGEVLDVALELAVRGEGKARSGYMGAGVAGTEWPAEMLREVSYGPLEAVGQALSRTWTMSLLTLDSIKKMLLGELSVKNLSGPITIAKVAGASAQSGVGDFLNF | not soluble |
| MDFECQFVCELKELAPVPALLIRTQTTMSELGSLFEAGYHDILQLLAGQGKSPSGPPFARYFGMSAGTFEVEFGFPVEGGVEGSGRVVTGLTPSGKAASSLYIGPYGEIEAVYDALMKWVDDNGFDLSGEAYEIYLDNPAETAPDQLRTRVSLMLHESLEHHHHHH | soluble |
| MASSVLEMIKEEVTCPICLELLKEPVSADCNHSFCRACITLNYESNRNTDGKGNCPVCRVPYPFGNLKPNLHVANIVERLKGFKSIPEEEQKVNICAQHGEKLRLFCRKDMMVICWLCERSQEHRGHQTALIEEVDQEYKEKLQGALRKLMKKAKICDEWQDDLQLQRVDWENQIQINVENVQRQFKGLRDLLDSKENEELQKLKKEKKEVMEKLEESENELEDQTELVRDLISDVEHHLQLSTLEMLQGANCVLRRSQSLSLQQPQSVPQKRKRTFQAPDLKGMLQVYQGLMDIQQYWVHMTLHARNNAVIAINKEKRQIQYRSYNTVPVSEIYHLGVLGYPALSSGKHYWEVDISRSDAWLLGLNDGKCAQPQLHSKEEMGIKKNLHSQIKQNVLFQPKCGYWVIGMKNPSVYNAFDECSITHNSSILVISLPDCPSRVGVFLDRKAGTLSFYDVSNCGALIYRFYDPAFPVEVYPYFNPMKCSEPMTICGPPS | soluble |
| MGSDKIHHHHHHMRNINYFFAGSLLLLSGCQLIPNGDIPADDETNINPTLEVVSPTESDTREQVVEARDLWQRMQEGMHWEKPNEAYVAPFRQKLLANPRHLEQVFSRAEPFLYLIVDELERRGLPLELALLPAIESAFDADAISHASASGLWQLTPPMARYFGLKMNWWYDGRNDVVASTRAAADFLEYLYDRTGNNWHYAIAAYNSGEGRVLSAVRHNEKAGKPTDIWALKLPRETRNYVPNLLALADVVKHADKYGVSLPRIKNEPVVDVVEIGSQIELALAAELAGLSVSELKSLNPGFKQWATAPKGPHRLVVPVSNAPDFVVALAQTPQEQRVQWARYQIKRGDSLSVIARQFGTTPQVLKQVNQMKNNQLIAGKELVVPANGRTNASAQLASATPKQSYKVKSGDSLWKIAQAHGISVNDLKKWNSLGSKAIIRQGQLLTVWPGSKAVANTRSTTYQVKRGDSLSLIAQKFKVKISELMSWNKLSSSALQPGQTLTVMLQ | not soluble |
| MVHAFLIHTLRAPNTEDTGLCRVLYSCVFGAEKSPDDPRPHGAERDRLLRKEQILAVARQVESMCRLQQQASGRPPMDLQPQSSDEQVPLHEAPRGAFRLAAENPFQEPRTVVWLGVLSLGFALVLDAHENLLLAEGTLRLLTRLLLDHLRLLAPSTSLLLRADRIEGILTRFLPHGQLLFLNDQFVQGLEKEFSAAWPR | not soluble |
| MQQLLISILEDLNNTSTDIIASAVISTDGLPMATMLPSHLNSDRVGAISATLLALGSRSVQELACGELEQVMIKGKSGYILLSQAGKDAVLVLVAKETGRLGLILLDAKRAARHIAEAI | not soluble |
| MRHVSNGDPVRVVIVTDGAYGAPAESGDYAQTRRRESTRAAAILGYGAPEFWNLPDRGLEYGERLIQRVLTAMEDHAAELVYAPSWWEVHPDHRVLALAATEAVRRCTRPLRLAMYEVGVPLQPNALLDITDLAERKASAVACFSSQLAQQDYDEQIASLNRFRTYTLPRTVRAAEGYLVLAAEELRNRIPRMMTQKDRLAVRGETGDTAATPLVSVIIPSMDGPRLKEALDSVALQTYPRIEAVVIDAKGEGHTPLPRWCGRFPLRFIPSDISLSRGRAADVGLEHAEGDYLVFLGEDDVFQPGDVASLVAEAARKQGTGLCSHADRRMTVFSGGVVDGSPRTGKPGKPAFLPLHAVLFDRSLAELRCRFDGDANVPEDGDFWDQAMQHVASIHPGACRHGHGLPGGEAGRHTIVRLPPWTSPAPLPPGASLARTPHPTERDSLRRRIQRAGRRIYETPPRGLTDALVRTAYRIWARLSSDSMITNDGKGTLEHHHHHH | not soluble |
| MVRMYEERTATFHSMNEGVIAIDNRLVITIFNEKAKQIFEVQGDLIGKVIWEVLKDSRLPEIVERNKAVYNEEIRVSGKVIMSSRIPIVMKKKVIGAVAIFQDRTEAAKMAEELTGVRNFVEALRVQNHEHMNKLHTIAGLIQLGKSEKALQLAFQASTEQENVTEFLHRSIQNDAAAGLLLSKIRRGRELGIAVHIDENSSLQQFPEHVDQHDIVVLLGNLIENAFGSFETVQSEDKRIDISIEQTDDILAILIEDNGCGIEPTHMPRLYDKGFTVNKTGGTGYGLYLVKQIIDKGSGTIEVDSHAGQGTSFSIVFPMKGE | not soluble |
| MEQVIAQVIKRQQTEERPPDVLSQQTTKYEKRNSASLRKRKNSSKLYLKTDQNWMALREKLASNSIHDKGKYRQKRESNVTCFKSGVESGIQNSSVRSRETQVTFCDGTVPSQGLELANSKSTAEISSRNEIPRLTKVVALDCEFVGVGKLGKEHSLARVSIVNFKGEVLYDKYVLNDKEPVVDYRTSVSGIRPEHLRSSDAVSFEQAQRDVYSIIRNRILVGHAIHHDMHALLLSHPRKLIRDTSKWRGLRSHHLSRKTPSLRKLAQEILGIRIQDGEHDSVEDARATLMIYKRFAKEWEMELQTKKVKLARKKHR | soluble |
| MNVPGAAPFLTAQSEEEATEVLESIHPDPEKSGARYIMSDERMAVDIFMAMPEWTLDTEGYMQPYWTGDGYQYLPSKRYFDSMESRLHFLDGNGLKQYRLVYETWAYQTQEAGYKQVYNFLYGSSIPEVDSGYVKIFEYVKGAKITGTVSPNETVNINTTILTGQGRTFELEHHHHHH | soluble |
| MAVGAPFLYRYSLYNCAYVILNGKVLGIVPKSYIPNYSEFYEKRWFTEGFNIKGLNVDLDFQKEVPFGTDLIFSFKNLKVGFEICEDLWVTIPPSSNLALMGANLICNLSASNELVSKSSYRKSLVQNQSARTMCSYIYSSAGVHESTTDLLFSGHMIIAENGTIIKENNRFKRENDLLTGIVDLFKLDAERIKNISFRNSTFNENNEPRFIPFNLENTEIKNFDREIDKHPFLPKSQYAMEARCEEILNIQAAALAKRLEHTNLKKAVIGISGGLDSTLALLVVVKTFDMLNIPRENIITITMPGFGTTDRTYNNAVTLCKELHCDFREINIVNAALQHFEDIGHDKDIHDVTYENVQARERTQILMDLANKEGGLLIGTGDLSELALGWCTYNGDHMSMYSVNCSIPKTLVRFLVNYFANHEISNDAKEALLDILDTPVSPELEHHHHHH | soluble |
| MSHLPLLALSPLDGRYLSKVDTLRPIFSEYGLIKSRVKVEIAWLLALAAEPNIVELAPFSVAAQTRLRVLADGLTIEHAARVKEIEHTTNHDVKAVEYFIKEQLKDDIELRRGLEFVHFACTSEDINNLSYSLMLQQARDDVLLPTLDGIATHLRTLAHAQAAQPMLSRTHGQTASPTTLGKEIANVVARLERQRHQIATIALSGKINGAVGNYNAHTISYPEVNWPALAQRFVESLGLVFNPYTTQIEPHDTIAEISDAIRRANTILIDLARDLWGYISLGYFKQKLKEGEIGSSTMPHKVNPIDFENAEGNFGVANALFEHFSTKLPISRWQRDLTDSTVLRALGTAFGHTQVALDSLNKGLHKLSPNPERIDADLDAAWEVLAEAVQTIMRRHNLPNPYEQLKALTRGQGITADSMRAFIETLDLPTEAKQRLHDLTPRAYTGLAKQLALNI | not soluble |
| MAPHGDGLSDIEEPEVDAQSEILRPISSVVFVIAMQAEALPLVNKFGLSETTDSPLGKGLPWVLYHGVHKDLRINVVCPGRDAALGIDSVGTVPASLITFASIQALKPDIIINAGTCGGFKVKGANIGDVFLVSDVVFHDRRIPIPMFDLYGVGLRQAFSTPNLLKELNLKIGRLSTGDSLDMSTQDETLIIANDATLKDMEGAAVAYVADLLKIPVVFLKAVTDLVDGDKPTAEEFLQNLTVVTAALEGTATKVINFINGRNLSDL | soluble |
| GKHTVPYTISVDGITALHRTYFVFPENKKVLYQEIDSKVKNELASQRGVTTEKINNAQTATYTLTLNDGNKKVVNLKKNDDAKNSIDPSTIKQIQIVVK | soluble |
| MGSDKIHHHHHHMDINADFSERVMVQSADLDWVASPMPGVDRRMLDRIGGEVARATSIVRYAPGSNFSAHTHTGGEEFVVLDGVFQDEHGDYPAGTYVRNPPTTSHTPGSDEGCTIFVKLWQFDMDDRTQFRRDMAAGGDRSVLHEDAFEIVTYHRLAPGAALEDPADGGAELLVLAGSLTEGGDTLITGGWLRLPESSTMHAVAGSEGATVWMKTGHLPHAKPPAVGRTR | not soluble |
| SASNYPAYMDNYLKEVINQVEEETGYNLLTTGMDVYTNVDQEAQKHLWDIYNTDEYVAYPDDELQVASTIVDVSNGKVIAQLGARHQSSNVSFGINQAVETNRDWGSTMKPITDYAPALEYGVYDSTATIVHDEPYNYPGTNTPVYNWDRGYFGNITLQYALQQSRNVPAVETLNKVGLNRAKTFLNGLGIDYPSIHYSNAISSNTTESDKKYGASSEKMAAAYAAFANGGTYYKPMYIHKVVFSDGSEKEFSNVGTRAMKETTAYMMTDMMKTVLSYGTGQNAYLAWLPQAGKTGTSNYTDEEIENHIKTSQFVAPDELFAGYTRKYSMAVWTGYSNRLTPLVGNGLTVAAKVYRSMMTYLSEGSNPEDWNIPEGLYRNGEFVFKNGAR | soluble |
| MGHHHHHHSHPPEKHLGIYSVLPNHKADAVLSMPSSVTSGLHVQPALAVSMDFSTYGGLLPQGFIQRELFSKLGELAVGMKSESRTIGEQCSVCGVELPDNEAVEQHRKLHSGMKTYGCELCGKRFLDSLRLRMHLLAHSAGAKAFVCDQCGAQFSKEDALETHRQTHTGTD | soluble |
| QSTVKIILEEDTETLDEVVVVGYGVQKKSDVTGAMARVTSKVIEDRPVQNALQAMQGRVTGVDITSNNRPGELGDIRIRGNRSLTADNNPLYVIDGIPMSAGSIADVNPSDIESMEILKDASATAIYGSRGANGVILVTTKKGKTGR | not soluble |
| MCQSNQIVSHFLSHRNVTNELAEKISKDHYSYKPAETSMSAEELVKHILTSFHLFANVIKEGNASPFQNKQEETETDLNVLAKTYTEKTVAILEQLTEEQLDREIDLTSAFGRKVTGRALLQLAMEHEIHHKGNLFVYVREMGHTELPFYQQRMLEHHHHHH | soluble |
| MGSDKIHHHHHHMDANSLKAFLTIVDQGSFSEAAETLHLTQPAISKRLAALETQLGTRLIDRSNREIRLTEAGTRLLPHARKILDEIHNARMALTTSADSIGGELHAIASHHIGLHHLPNWLRRYRREYPQVDLHLQFMESDAAYDQMNKRNAELAFVTLSDSMNPEFSILAQWPDPMAFVVGKEHPLATLASPSLSDLAPHPALLPDTSTATYRVVSRLFLEANLTLRPLMPTNYLETIKMMVSVGLGWSILPVSMLDNSLKVLEVPHPVTRVLGAVALSRRQLGSAAQALLQIVEQEETRPESGQ | not soluble |
| MSLIPIDYLRASRKGREVRPRYLNDDKIASEVINMAKSAKTLGEFRNAVELISSDKKLVRGLAHVLEQLIEIEKIDSKLVTRTRLEVFKAASALGYPLTEEERERVFQTVAARLKMGVNEVKALFLKAYEENRLIVKAPDIQPKQLVEMYNLALIQALLFKSLYVKALLPNAPALLKGLIRAVKGLGLMYIVEINGGQLEFRFDGPVSALRQTERYGTRLAKLVPYITSAEKWEIEAQVKLGERIYVFKESGRTAPPLPKTPPHAEQFDSLVEQEFYKQVSKICHVEREPEALVVDGRVYIPDFKIGDLYVEIVGFWTPDYLKRKYEKITKVGKPLLVLVSEELAMATWKQLMPNVVVFKDRPRLSDVFKYIKPYCVNHREGHHHHHH | not soluble |
